Substitutions are numbered along the chain they refer to.

The source of these data is patent US20250154277A1 (CONCEPT TO MEDICINE BIOTECH, published 2025).

First the molecules themselves.
T1: human 5T4-His protein (human, UniProt Q13641 32-355)
T1 construct: also called recombinant 5T4 protein (human 5T4-his tag); human 5T4 protein; not shown: His tag
T1 sequence (looked up): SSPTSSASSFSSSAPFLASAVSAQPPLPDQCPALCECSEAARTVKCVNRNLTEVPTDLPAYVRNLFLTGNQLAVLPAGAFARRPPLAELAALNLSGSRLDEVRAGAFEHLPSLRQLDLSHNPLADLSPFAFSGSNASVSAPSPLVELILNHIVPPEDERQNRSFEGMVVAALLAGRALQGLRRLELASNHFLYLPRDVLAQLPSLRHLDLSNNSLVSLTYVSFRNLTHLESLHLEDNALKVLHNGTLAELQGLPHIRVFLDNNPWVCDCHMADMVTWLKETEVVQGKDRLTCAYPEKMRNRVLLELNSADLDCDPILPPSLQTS

B1: Hu14G12-44 (antibody, V domains shown)
VH: QVQLVQSGAEVKKPGASVKVSCKASGYAFSSSWMNWVRQAPGQGLEWMGRIYREDGHTNYNGKFKGRVTMTADKSTTTAYMELRSLRSDDTAVYYCANGGAMDYWGQGTLVTVSS
VL: DIQMTQSPSSLSASVGDRVTITCRASQDISNYLNWYQQKPGKAPKLLIYYTSRLHSGVPSRFSGSGSGTDYTLTISSLQPEDIATYFCQQDNTLPWTFGGGTKVEIK
notes: humanized
B2: Hu14G12-4 (antibody, V domains shown)
VH: EVQLVQSGAEVKKPGATVKISCKVSGYAFSSSWMNWVQQAPGKGLEWMGRIYREDGHTNYNGKFKGRVTITADTSTDTAYMELSSLRSEDTAVYYCATGGAMDYWGQGTLVTVSS
VL: B1 VL with T22S, A43T, P44V, L73F, V104L
notes: humanized
B3: Hu14G12-1 (antibody, V domains shown)
VH: B2 VH
VL: B1 VL with Y71F, L73F, F87Y, V104L
notes: humanized
B4: Hu14G12-9 (antibody, V domains shown)
VH: B2 VH with Q38K, M48I, V68A, D77T, Y95F, T98N
VL: B1 VL with Y71F, L73F, F87Y, V104L
notes: humanized
B5: Hu14G12-15 (antibody, V domains shown)
VH: B2 VH with V24A, Q38K, M48I, V68A, D77T, T91S, Y95F, T98N
VL: B1 VL with T22S, P44V, Y71F, L73F, V104L
notes: humanized
B6: Hu14G12-18 (antibody, V domains shown)
VH: QVQLVQSGAEVKKPGSSVKVSCKASGGTFSSSWMNWVKQAPGQGLEWIGRIYREDGHTNYNGKFKGKATLTADKSTSTAYMELSSLRSEDTAVYFCANGGAMDYWGQGTTVTVSS
VL: B1 VL with A43V, I83V, V104L
notes: humanized
B7: Hu14G12-5 (antibody, V domains shown)
VH: B2 VH with M48I, Y95F, T98N
VL: B1 VL with Y71F, L73F, F87Y, V104L
notes: humanized
B8: Hu14G12-13 (antibody, V domains shown)
VH: B2 VH with V24A, Q38K, M48I, V68A, D77T, T91S, Y95F, T98N
VL: B1 VL with Y71F, L73F, F87Y, V104L
notes: humanized
B9: Hu14G12-3 (antibody, V domains shown)
VH: B2 VH
VL: B1 VL with T22S, P44V, Y71F, L73F, V104L
notes: humanized
B10: Hu14G12-12 (antibody, V domains shown)
VH: B2 VH with Q38K, M48I, V68A, D77T, Y95F, T98N
VL: B1 VL with T22S, A43T, P44V, L73F, V104L
notes: humanized
B11: Hu14G12-16 (antibody, V domains shown)
VH: B2 VH with V24A, Q38K, M48I, V68A, D77T, T91S, Y95F, T98N
VL: B1 VL with T22S, A43T, P44V, L73F, V104L
notes: humanized
B12: Hu14G12-11 (antibody, V domains shown)
VH: B2 VH with Q38K, M48I, V68A, D77T, Y95F, T98N
VL: B1 VL with T22S, P44V, Y71F, L73F, V104L
notes: humanized
B13: Hu14G12-7 (antibody, V domains shown)
VH: B2 VH with M48I, Y95F, T98N
VL: B1 VL with T22S, P44V, Y71F, L73F, V104L
notes: humanized
B14: Hu14G12-8 (antibody, V domains shown)
VH: B2 VH with M48I, Y95F, T98N
VL: B1 VL with T22S, A43T, P44V, L73F, V104L
notes: humanized
B15: Hu14G12-47 (antibody, V domains shown)
VH: B1 VH
VL: B1 VL with S10T, D70E, E81D
notes: humanized
B16: 393E9_hVH1_hVL1 (antibody, V domains shown)
VH: EVQLVESGGGLVQPGGSLRLSCAASGFTFTDYYMSWVRQAPGKGLEWVGFIRNKGNGYTTENSASVKGRFTISRDNSKSTLYLQMNSLRAEDTAVYYCARYRGNPHYAMDYWGQGTLVTVSS
VL: DIVLTQSPDSLAVSLGERATINCRASESVEFYGTSFLQWYQQKPGQPPKLLIYGASNVESGVPDRFSGSGSGTDFTLTISSLQAEDIAVYFCQQSRKVPSTFGGGTKVEIK
notes: humanized
B17: 393E9_hVH1_hVL3 (antibody, V domains shown)
VH: B16 VH
VL: DIQLTQSPSSLSASVGDRVTITCRASESVEFYGTSFLQWYQQKPGKAPKLLIYGASNVESGVPSRFSGSGSGTDFTLTISSLQPEDIATYFCQQSRKVPSTFGGGTKVEIK
notes: humanized
B18: 393E9_hVH1_hVL2 (antibody, V domains shown)
VH: B16 VH
VL: EIVLTQSPATLSVSPGERATLSCRASESVEFYGTSFLQWYQQKPGQAPRLLIYGASNVESGIPARFSGSGSGTEFTLTISSLQSEDIAVYFCQQSRKVPSTFGGGTKVEIK
notes: humanized
B19: 393E9_hVH6_hVL1 (antibody, V domains shown)
VH: B16 VH with S77A, T80S
VL: B16 VL
notes: humanized
B20: 393E9_hVH3_hVL2 (antibody, V domains shown)
VH: B16 VH with E1Q, L11V
VL: B18 VL
notes: humanized
B21: 393E9_hVH5_hVL2 (antibody, V domains shown)
VH: B16 VH with G16R, A23T, T80I, R89K, A90T
VL: B18 VL
notes: humanized
B22: 393E9_hVH4_hVL1 (antibody, V domains shown)
VH: B16 VH with T80S, R89K, A90T
VL: B16 VL
notes: humanized
B23: 393E9_hVH5_hVL1 (antibody, V domains shown)
VH: B16 VH with G16R, A23T, T80I, R89K, A90T
VL: B16 VL
notes: humanized
B24: 393E9_hVH4_hVL4 (antibody, V domains shown)
VH: B16 VH with T80S, R89K, A90T
VL: DIVLTQSPLSLPVTPGEPASISCRASESVEFYGTSFLQWYLQKPGQSPQLLIYGASNVESGVPDRFSGSGSGTDFTLKISRVEAEDIGVYFCQQSRKVPSTFGGGTKVEIK
notes: humanized

The target in the first assay is T1, human 5T4-His protein. The assay can be described thus: ELISA, coated 5T4-His. The method, then:
To evaluate the binding activity of 14G12 humanized antibodies to human 5T4, the 14G12 chimeric antibody along with 14G12 humanized mAbs were subjected to ELISA test.
Briefly, microtiter plates were coated with human 5T4-His protein at 1 μg/ml in PBS, 100 μl/well at 4° C. overnight, then blocked with […]. Serial dilutions of antibodies were added to each well and incubated for 1 hour at 37° C. The plates were washed with PBS/Tween and then incubated with Goat Anti-Human IgG-HRP for 30 mins at 37° C. After washing, the plates were developed with TMB substrate and analyzed by spectrophotometer at OD 450 nm. As shown in FIG. 10 and Table 6, most of the humanized antibodies bound to human 5T4 at high activity.
(In general: In an ELISA, binding on a coated surface is turned into a signal by an enzyme label.)
In general, EC50 refers to the midpoint of the concentration-response curve. A higher EC50 goes with lower potency in that assay. B1: the midpoint of the response, the EC50, lay at 0.0075 µg/mL.

In turn, B2 came in with a concentration for a half-maximal effect (EC50) of 0.019 µg/mL.

B3 came in with an EC50 of 0.021 µg/mL.

In turn, B4 displayed a half-maximal effective concentration (EC50) of 0.012 µg/mL. This EC50 is about 1.8-fold lower than that of the molecule before.

B5 displayed a concentration for a half-maximal effect (EC50) of 0.014 µg/mL.

In turn, B6 gave an EC50 of 0.31 µg/mL. Against the preceding molecule, the EC50 is about 22-fold higher.

For the molecule B7, a half-maximal response (EC50) required 0.014 µg/mL.

B8 displayed an EC50 of 0.018 µg/mL.

In turn, B9 displayed an EC50 of 0.026 µg/mL. This EC50 and that of the molecule before are within 1.5-fold of each other.

Molecule B10 displayed a concentration for a half-maximal effect (EC50) of 0.019 µg/mL.

B11 gave a concentration for a half-maximal effect (EC50) of 0.017 µg/mL. This EC50 and that of the molecule before are within 1.5-fold of each other.

The molecule B12 came in with a 50% effective concentration (EC50) of 0.015 µg/mL.

Molecule B13 yielded an EC50 of 0.015 µg/mL.

Take B14: the EC50 worked out at 0.015 µg/mL.

On to B15, for which the response was half-maximal at 0.014 µg/mL (EC50).

The next assay deals with T1, human 5T4-His protein. The assay can be described thus: SPR Biacore, Protein A capture. The method, then:
The binding of the 14G12 humanized antibodies to recombinant 5T4 protein (human 5T4-his tag) was tested with Biacore using a capture method. The mAbs were captured using Protein A chip. Serial dilution of human 5T4-his tag protein was injected over captured antibody for 120 s-180 s at a flow rate of 30 μl/min. The antigen was allowed to dissociate for 360 s-1000 s. All the experiments were carried out on a Biacore T200. Data analysis was carried out using the Biacore T200 evaluation software.
In general, Kd refers to a measure of binding affinity in units of concentration. Read a low Kd as higher affinity. As a reminder, the koff is the first-order rate constant of dissociation. Low values mean a long-lived complex, high ones a short-lived complex. As usually defined, the kon is the second-order rate constant of association. A high value points to faster complex formation. The molecule B1 yielded a Kd of 1.41 nM, a koff of 0.00197 s⁻¹ and an on-rate constant (kon) of 1.4e+06 M⁻¹ s⁻¹.

As to B2, the dissociation constant Kd amounted to 12.5 nM, the koff was 0.00267 s⁻¹ and the kon amounted to 214000 M⁻¹ s⁻¹.

The molecule B3 came in with a Kd of 42.7 nM, a koff of 0.0121 s⁻¹ and a kon of 283000 M⁻¹ s⁻¹.

On to B4, for which the Kd amounted to 5.31 nM, the koff turned out to be 0.00107 s⁻¹ and the kon was 202000 M⁻¹ s⁻¹.

B5 showed a Kd of 3.19 nM, an off-rate (koff) of 0.000837 s⁻¹ and a kon of 262000 M⁻¹ s⁻¹.

The molecule B6 gave a Kd of 4.55 nM, a koff of 0.00178 s⁻¹ and a kon of 392000 M⁻¹ s⁻¹.

The molecule B7 had a dissociation constant (Kd) of 5.88 nM, an off-rate constant (koff) of 0.00146 s⁻¹ and a kon of 248000 M⁻¹ s⁻¹.

In turn, B8 returned a Kd of 6.12 nM, a koff of 0.00121 s⁻¹ and a kon of 198000 M⁻¹ s⁻¹.

As for B9, the Kd amounted to 27.5 nM, the dissociation rate constant (koff) is 0.0055 s⁻¹ and the kon is 200000 M⁻¹ s⁻¹.

On to B10, for which the equilibrium dissociation constant (Kd) stood at 2.39 nM, the off-rate (koff) was determined as 0.000655 s⁻¹ and the kon is 274000 M⁻¹ s⁻¹.

Molecule B11 had a Kd of 1.85 nM, an off-rate (koff) of 0.000499 s⁻¹ and an on-rate constant (kon) of 269000 M⁻¹ s⁻¹.

In turn, B12 returned a Kd of 2.17 nM, a koff of 0.000523 s⁻¹ and a kon of 241000 M⁻¹ s⁻¹.

As for B13, binding was put at a Kd of 2.52 nM, the koff was 0.000846 s⁻¹ and the association rate constant (kon) was 336000 M⁻¹ s⁻¹.

Molecule B14 yielded an equilibrium dissociation constant (Kd) of 1.36 nM, a koff of 0.000464 s⁻¹ and a kon of 340000 M⁻¹ s⁻¹.

With B15, the Kd stood at 2.1 nM, the off-rate constant (koff) turned out to be 0.000921 s⁻¹ and the on-rate constant (kon) came to 438000 M⁻¹ s⁻¹.

A further assay deals with T1, human 5T4-His protein. The assay can be described thus: ELISA, coated 5T4-His. This is another data set of the same source. The method, then: To evaluate the binding activity of 393E9 humanized antibodies to human 5T4, the 393E9 chimeric antibody (393E9-C) along with 393E9 humanized mAbs were subjected to ELISA test.
Briefly, microtiter plates were coated with human 5T4-His protein at 1 μg/ml in PBS, 100 μl/well at 4° C. overnight, then blocked with 150 μl/well of 1% BSA. 4-fold dilutions of antibodies starting from 20 nM were added to each well and incubated for 1 hour at 37° C. The plates were washed with PBS/Tween and then incubated with Goat Anti-Human IgG-HRP for 30 mins at 37° C. After washing, the plates were developed with TMB substrate and analyzed by spectrophotometer at OD 450 nm. As shown in FIG. 12 and Table 9, most of the humanized antibodies bound to human 5T4 with high activity.
B16 gave an EC50 of 0.18 nM.

With B17, the EC50 amounted to 0.085 nM.

B18: the EC50 is 0.16 nM.

The molecule B19 showed a concentration giving a half-maximal response (EC50) of 0.11 nM. This EC50 and that of the molecule before are within 1.5-fold of each other.

B20 yielded a concentration giving a half-maximal response (EC50) of 0.2 nM.

Molecule B21 displayed a half-maximal effective concentration (EC50) of 0.27 nM.

In turn, B22 gave an EC50 of 0.13 nM.

In the case of B23, a half-maximal response (EC50) required 0.16 nM. The EC50 values of the last two molecules are within 1.5-fold of each other.

B24 had a concentration giving a half-maximal response (EC50) of 0.16 nM.
